In patent US20150290345A1 one finds Kd data, which are given here for two substances.

For this assay, the target named is Recombinant Human ErbB2/Fc Chimera (R&D Systems, Inc.) (human) (UniProt P04626). Nature of the assay: SPR, ProteOn XPR36; ErbB2/Fc amine-coupled on GLM chip (about 3000 RU), 1:1 Langmuir fit.

A word on the Kd: it is the free concentration of one partner at which half of the binding sites on the other are occupied at equilibrium, for simple one-to-one binding. In the case of “L1-ICG-HSA (Affibody-immobilized ICG-HSA, SM(PEG)2 linker at 10 times the molar amount of ICG-HSA) (from UniProt P02768 25-609)”, the Kd is 2.3 nM.

Take “L2-ICG-HSA (Affibody-immobilized ICG-HSA, SM(PEG)2 linker at 100 times the molar amount of ICG-HSA) (from UniProt P02768 25-609)”: the Kd was determined as 0.24 nM.
